{
  "source": "patent US20040102370A1",
  "about": "(IMPERIAL INNOVATIONS, published 2004)",
  "binders": {"B1": {"name": "Peptide A(d): [{Ac-DRVEPYSSTA}2-K]2-K-OH (peptide)", "peptide": "Ac-DRVEPYSSTA", "chain": "Lys-OH", "modifications": "also: four copies of chain 1 on a branched core of three lysines (two Lys on α- and ε-amines of C-terminal Lys)"}},
  "note": "Several values for one entry are separate records, joined by “and”; a condition that tells them apart may be missing. Equal values may be shown once. No end group written: not given here.",
  "data": [
    {"target": "FGF receptors", "assay": "cell-based or functional assay", "values": [
      {"binder": "B1", "peptide concentration giving maximal effect in the neurite outgrowth assay": "~0.4 µM"},
      {"binder": "Ac-EGMEGM-NH2", "note": "[Peptide D: Acetyl-EGMEGM-amide]", "peptide concentration giving maximal effect in the neurite outgrowth assay": "63 µg/ml and 100 µM"},
      {"binder": "Ac-DRVE-NH2", "note": "[Peptide B: Acetyl-DRVE-amide]", "peptide concentration giving maximal effect in the neurite outgrowth assay": "75 µg/ml and 150 µM"},
      {"binder": "Ac-DAVEPYSSTA-NH2", "note": "[Peptide F: Acetyl-DAVEPYSSTA-amide]", "peptide concentration giving maximal effect in the neurite outgrowth assay": "100 µg/ml and 100 µM"}
    ]}
  ]
}
